Positions count from the first letter of the chain named.
T1: recombinant human TIGIT-His (SinoBiological) (UniProt Q495A1 22-141)
T1 chain: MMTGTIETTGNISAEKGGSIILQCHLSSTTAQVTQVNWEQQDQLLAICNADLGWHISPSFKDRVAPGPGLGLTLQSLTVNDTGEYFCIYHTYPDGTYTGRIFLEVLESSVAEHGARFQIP

B1: 50C2 Original (antibody, V domains shown)
VH: QVQLKESGPGLVAPSQSLSITCTVSGFSLTNYNINWIRQPPGKGLEWLGVIWTGGGTNYNSAFMSRLSISKDNSKSQVFLKMNRLQTDDTAIYYCVREAYFSNYGFYFDYWGQGTTLTVSS
VL: EIVLTQSPTTMAASPGEKITITCSASSSISSNYLHWYQQKPGFSPKLLIYRTSNLASGVPARFSGSGSGTSYSLTIGTMEAEDVATYYCQQGSSIPRTFGGGTKLEIK
B2: 50C2 Affinity Matured (HAM) (antibody, V domains shown)
VH: QVQLQESGPGLVKPSETLSLTCTVSGFSLTNYNINWIRQPPGKGLEWIGVIWNGGGTNYNSAFMSRVTISKDTSKNQVSLKLSSVTAADTAVYYCVREAYFSNYGFYFDYWGQGTLVTVSS
VL: DIQMTQSPSSLSASVGDRVTITCSASSSISSNYLHWYQQKPGKAPKLLIYRTSNLASGVPSRFSGSGSGTDFTLTISSLQPEDFATYYCQQGSSIPRTFGGGTKVEIK
B3: 50C2 Humanized (Hu) (antibody, V domains shown)
VH: B2 VH with N53T
VL: B2 VL
B4: 32B10 Humanized (Hu) (antibody, V domains shown)
VH: EVQLLESGGGLVQPGGSLRLSCAASGFTFSNYVMSWVRQAPGKGLEWVSTITSGGTYTYYPDSVKGRFTISRDNSKNTLYLQMNSLRAEDTAVYYCTRWLLSLYAMDYWGQGTTVTVSS
VL: DIQMTQSPSSLSASVGDRVTITCRASQDISNFLNWYQQKPGKAVKLLLYYTSRLHSGVPSRFSGSGSGTDYTLTISSLQPEDFATYFCQQGKTYPYTFGGGTKVEIK
B5: 32B10 Affinity Matured (HAM) (antibody, V domains shown)
VH: B4 VH
VL: B4 VL with G91F
B6: 32B10 Original (antibody, V domains shown)
VH: EVQLVESGGVLVKPGGSLKLSCAASGFTFSNYVMSWVRQTPEKRLEWVATITSGGTYTYYPDSVKGRFTISRDNAKNILYLQMSSLRSEDTALYYCTRWLLSLYAMDYWGQGTSVTVSS
VL: DIQMTQTTSSLSASLGDRVTITCRASQDISNFLNWYQQKPDGTVKLLIYYTSRLHSGVPSRFSGSGSGTDYSLTISNLEQEDIATYFCQQGKTYPYTFGGGTKVEIK
B7: 45.50C2.A6 (antibody, V domains shown)
VH: B1 VH
VL: B1 VL
B8: hu50C2 HAM (45.50C2.A6) (antibody, V domains shown)
VH: B2 VH
VL: B2 VL
B9: hu50C2 (45.50C2.A6) (antibody, V domains shown)
VH: B2 VH with N53T
VL: B2 VL
B10: hu32B10 HAM (45.32B10.A4) (antibody, V domains shown)
VH: B4 VH
VL: B4 VL with G91F
B11: hu32B10 (45.32B10.A4) (antibody, V domains shown)
VH: B4 VH
VL: B4 VL
B12: 45.32B10.A4 (antibody, V domains shown)
VH: B6 VH
VL: B6 VL
B13: 45.32A8.G6 (antibody, V domains shown)
VH: B1 VH with Q16H, V50I, R66T, S70N, L85M, A91T, A99T, S102N, G114S
VL: B1 VL
B14: 45.31G8.E9 (antibody, V domains shown)
VH: QIQLQQSGAELVRPGTSVKMSCKAVGYTFTNYWINWVKQRPGHGFEWIGDIYPGGYYINYNEKFKGKATLTADTSSSTAYMQLSSLTSEDSAIYYCARGYGSYAMDYWGQGTSVTVSS
VL: DIVMTQSQKFMSTSVGDRVSITCKASQNVRTDVVWYQQKPGQSPKALIFLASNRHTGVPDRFTGSGSGTDFTLTISNVQSEDLADYFCLQHWNYPYTFGGGTKLEIK
B15: 45.102D4.C12.C6 (antibody, V domains shown)
VH: EVQLQQSGPELVKPGASVKMSCKASGYTFTTYVIHWVKQKPGQGLEWIGYINPYNDGTKYNEKFKVKATLTSDKSSSTAYMELSSLTSEDSAVYYCARSFYVNYGFAYWGQGTLVTVSA
VL: DIVMTQAHKFMSTSVGDRVSITSKASQDVRTAVAWYQQKPGQSPKLLIYSASYRYTGVPDRFTGSGSGADFTFTISSVQAEDLAVYYCQQHYITPWTFGGGTKLEIK
B16: 45.49H11.H11 (antibody, V domains shown)
VH: B15 VH with A24T, G26K, T31N, I34L, V66G, F100Y, Y101Q, V102S, A107G
VL: DIVMTQSHKFMSTSVGDRVSITCKASQHVSTAVVWYRQIPGQSPKILINSASYRYTGVPDRFTGSGSGTDFTFTISSVQAEDLAVYYCQQHYSIPWTFGGGTKLEIK
B17: 45.87B8.H2.H5 (antibody, V domains shown)
VH: DVQLQESGPGLVKPSQSLSLTCTVTGYSITSAYDWHWIRLFPGHILEWMGYISYSGNTIYNPSLKSRISITHDTSKNHFFLKLNSVTTEDTATYYCARGSFWYFDVWGAGTTVTVSS
VL: DIQMTQSPASLSASVGETVTITCRVSEHIYNYLAWYQQKQGKSPQLLVYNAKTLAEGVPSRFSGSGSGTQFSLKINSLQPEDFGTYYCQHNYGNPLTFGAGTKVELK
B18: 45.62B12.G5 (antibody, V domains shown)
VH: B17 VH with L40H, H44N, S53R, Y54N, N57S, I59N, S63L, K76Q, F80S, S100L
VL: B17 VL with V25A, H28N, A34T, T85S, N91H, V104L
B19: 45.86C5.C3 (antibody, V domains shown)
VH: B17 VH with A32G, L40H, H44N, Y54D, N61S, T88S
VL: B17 VL with H28N, N31S, A51T, T85S, N91H, V104L
B20: 45.3D7.F7 (antibody, V domains shown)
VH: QVQLQQSGPELVKPGASVKISCKASGYGFSGYWMNWVKQGPGKGLEWIGRIFPGDGDTDYNGKLKDKATLTAYKSSSTAYLQLSSLTSEDSAVYFCARWLGGFTSWGQGTLVTVSA
VL: QIVLSQSPAILSASPGEKVTMTCRASASVSYMHWYQQKPGSSPKPWIYATSNLASGVPARFSGSGSGTSYSLTISRVEAEDAATYYCQQWSSDPPTFGAGTKLELK
B21: 45.56F7.A1 (antibody, V domains shown)
VH: B6 VH with V10A, V33A, T52S, T56S, I78T, T97A
VL: B6 VL with I2F, T22S, A25S, F32Y, Y50R, Q80R, Y94P, V104L
B22: 45.75D4.D3.D9 (antibody, V domains shown)
VH: EVQLQQSGPELVKPGASMKMSCKASGYKFTSYVMHWVKQKPGQGLEWIGYIDPYNDGSKYNEKFKGKATLTSDKSSSIAYMELSSLTSEDSAVFYCARGGSRGWYFDVWGAGTTVTVSS
VL: DIQMTQSPASLSASVGETVTFTCRTNENIYSYLTWYQQKQGKSPQVLVYNAKTLAEGVPSRFSGSGSGTQFSLKINSLQPEDFGSYFCQHHFGNPLTFGAGTKLELK

molecular target: Cynomolgus TIGIT; assay: Biacore

Row | Kd | Binder
1 | 45.9 nM | B1
2 | 19.2 nM | B2
3 | 69.5 nM | B3
4 | 26 nM | B4
5 | 6.73 nM | B5
6 | 8.7 nM | B6

Molecular target: T1, recombinant human TIGIT-His …
Assay: Biacore

Row | Kd | Binder
7 | 0.386 nM | B7
8 | 4.17 nM | B8
9 | 1.46 nM | B9
10 | 0.271 nM | B10
11 | 1.61 nM | B11
12 | 0.53 nM | B12

Molecular target: T1, recombinant human TIGIT-His …
Assay: Biacore; 25°C

Row | Kd | Binder
13 | 0.428 nM | B13
14 | 0.386 nM | B7
15 | 0.776 nM | B14
16 | 1.23 nM | B15
17 | 1.04 nM | B16
18 | 4.75 nM | B17
19 | 0.862 nM | B18
20 | 0.784 nM | B19
21 | 4.47 nM | B20
22 | 0.53 nM | B12
23 | 12 nM | B21
24 | 1.09 nM | B22

From patent US20240425588A1 (published 2024)
